Test results taken from article PMC10530723, “The Conserved Chromatin Remodeler SMARCAD1 Interacts with TFIIIC and Architectural Proteins in Human and Mouse” (Genes, 2023).

Biological target: T1, His-SMARCAD1 (human, recombinant) (human, UniProt Q9H4L7 1-1026)
T1 construct: also called hSMARCAD1; His-tagged human SMARCAD1; source: insect cells (baculovirus), purified via a His-tag
T1 sequence (looked up): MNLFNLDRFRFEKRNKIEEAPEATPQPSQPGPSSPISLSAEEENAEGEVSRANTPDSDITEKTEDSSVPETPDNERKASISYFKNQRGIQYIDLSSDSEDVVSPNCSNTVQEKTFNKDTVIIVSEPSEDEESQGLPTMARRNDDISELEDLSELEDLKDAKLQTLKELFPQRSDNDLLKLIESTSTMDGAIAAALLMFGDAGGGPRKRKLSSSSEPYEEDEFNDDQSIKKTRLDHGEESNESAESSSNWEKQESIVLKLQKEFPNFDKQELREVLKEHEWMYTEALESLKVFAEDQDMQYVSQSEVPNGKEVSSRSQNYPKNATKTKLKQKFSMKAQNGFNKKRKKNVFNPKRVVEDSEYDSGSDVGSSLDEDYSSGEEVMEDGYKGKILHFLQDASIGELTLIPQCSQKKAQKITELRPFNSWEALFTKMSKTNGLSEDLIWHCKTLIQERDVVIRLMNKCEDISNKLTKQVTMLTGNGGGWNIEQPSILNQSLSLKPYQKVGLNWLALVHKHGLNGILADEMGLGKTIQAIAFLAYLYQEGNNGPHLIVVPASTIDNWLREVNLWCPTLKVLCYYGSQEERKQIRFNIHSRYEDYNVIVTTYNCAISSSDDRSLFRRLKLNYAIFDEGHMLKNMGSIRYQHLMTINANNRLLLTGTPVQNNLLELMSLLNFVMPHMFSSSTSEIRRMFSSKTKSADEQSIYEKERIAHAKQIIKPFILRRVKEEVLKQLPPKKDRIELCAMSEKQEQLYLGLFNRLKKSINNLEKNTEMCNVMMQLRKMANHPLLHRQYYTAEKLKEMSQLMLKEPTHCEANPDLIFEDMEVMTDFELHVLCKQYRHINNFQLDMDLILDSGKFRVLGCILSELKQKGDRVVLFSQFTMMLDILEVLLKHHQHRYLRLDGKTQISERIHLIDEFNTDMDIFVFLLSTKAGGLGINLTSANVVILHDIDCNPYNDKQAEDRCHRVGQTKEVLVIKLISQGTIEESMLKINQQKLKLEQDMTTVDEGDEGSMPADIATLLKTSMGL
Test: pull-down; GST fusion proteins on glutathione Sepharose 4B beads (13 ug protein), 1 ug His-Smarcad1 in solution; 100 mM NaCl, 20 mM Hepes, 5% glycerol, 0.1% Triton; 1.5 h at 4 °C; bound protein detected by Western blot with anti-SMARCAD1
Details: both partners purified

B1: GST-TFIIIC102 (human, full-length) (natural protein, UniProt Q9Y5Q9 1-886, looked up)
chain: MSGFSPELIDYLEGKISFEEFERRREERKTREKKSLQEKGKLSAEENPDDSEVPSSSGINSTKSQDKDVNEGETSDGVRKSVHKVFASMLGENEDDEEEEEEEEEEEEEEETPEQPTAGDVFVLEMVLNRETKKMMKEKRPRSKLPRALRGLMGEANIRFARGEREEAILMCMEIIRQAPLAYEPFSTLAMIYEDQGDMEKSLQFELIAAHLNPSDTEEWVRLAEMSLEQDNIKQAIFCYTKALKYEPTNVRYLWERSSLYEQMGDHKMAMDGYRRILNLLSPSDGERFMQLARDMAKSYYEANDVTSAINIIDEAFSKHQGLVSMEDVNIAAELYISNKQYDKALEIITDFSGIVLEKKTSEEGTSEENKAPENVTCTIPDGVPIDITVKLMVCLVHLNILEPLNPLLTTLVEQNPEDMGDLYLDVAEAFLDVGEYNSALPLLSALVCSERYNLAVVWLRHAECLKALGYMERAAESYGKVVDLAPLHLDARISLSTLQQQLGQPEKALEALEPMYDPDTLAQDANAAQQELKLLLHRSTLLFSQGKMYGYVDTLLTMLAMLLKVAMNRAQVCLISSSKSGERHLYLIKVSRDKISDSNDQESANCDAKAIFAVLTSVLTKDDWWNLLLKAIYSLCDLSRFQEAELLVDSSLEYYSFYDDRQKRKELEYFGLSAAILDKNFRKAYNYIRIMVMENVNKPQLWNIFNQVTMHSQDVRHHRFCLRLMLKNPENHALCVLNGHNAFVSGSFKHALGQYVQAFRTHPDEPLYSFCIGLTFIHMASQKYVLRRHALIVQGFSFLNRYLSLRGPCQESFYNLGRGLHQLGLIHLAIHYYQKALELPPLVVEGIELDQLDLRRDIAYNLSLIYQSSGNTGMAQTLLYTYCSI
notes: TFIIIC102, human, full-length, cDNA from OriGene (RC208122) cloned into pGEX-6P-1 (BamH1/Not1); pGEX-6P-1 places GST at the N-terminus (surmised from the vector; the reverse primer carries the stop codon); also called hTFIIIC102; human TFIIIC102 GST-fusion protein; source: E. coli, purified (glutathione Sepharose 4B beads)
B1: binds.
